In the supplement of paper PMC9732359:
± gives the uncertainty stated by the source.

Assay: protein stability index of a GFP-peptide fusion (yeast GPS) (PSI 1-4); higher = more stable; sorted into four equal gates, so the index is relative within each strain
Outline: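 The protein stability index of a peptide was calculated by multiplying its read frequency in each gate by that gate's number and adding the products. The peptides were tiled 17-residue stretches of yeast proteins, fused downstream of GFP on a Cherry-expressing plasmid and carried in yeast as a pooled library. Mid-log cultures in leucine-free medium were sorted into four equal gates by GFP/Cherry ratio, and each gate's plasmids were PCR-amplified and Illumina-sequenced.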

Row | Sequence | protein stability index (doa10∆) | protein stability index (pdr5∆) | protein stability index (san1∆) | protein stability index (ubr1∆)
1 | GEILLPDIADIPRTFRT [SNF5] | 2.82 ± 0.14 | 3.18 ± 0.12 | 3.19 ± 0.12 | 3.05 ± 0.1
2 | QIFCVFSGKGVHKLRHY [GRR1] | 2.67 ± 0.068 | 2.88 ± 0.061 | 3.09 ± 0.066 | 2.76 ± 0.053
3 | QLTSLEKDCSLRAIEKN [YIL149C/MLP2] | 2.58 ± 0.068 | 2.8 ± 0.064 | 2.98 ± 0.058 | 3.06 ± 0.047
4 | SMSGRISAKDMGQGLCN [BRR2] | 3 ± 0.11 | 3.03 ± 0.084 | 3.02 ± 0.076 | 3.19 ± 0.078
5 | FQITLSSDDLQNCWSLI [SSN8] | 2.11 ± 0.049 | 2.33 ± 0.063 | 2.22 ± 0.062 | 1.91 ± 0.045
6 | DISAMQPVNPKPFLKGL [SMX3] | 3.12 ± 0.067 | 3.18 ± 0.068 | 3.2 ± 0.051 | 3.22 ± 0.053
7 | PHLPFSKSENPVLSTIA [SWI3] | 1.95 ± 0.049 | 2.04 ± 0.048 | 2.03 ± 0.062 | 2.05 ± 0.028
8 | QLNLNNLTPANILNMSM [PGD1] | 3.04 ± 0.1 | 3.19 ± 0.07 | 2.75 ± 0.067 | 3.02 ± 0.045
9 | TDQLIQNIETRQLANLI [NUT1] | 3.15 ± 0.11 | 3.14 ± 0.12 | 2.94 ± 0.13 | 3.01 ± 0.051
10 | KTKAMSLSIEENIPVAL [POP1] | 2.92 ± 0.079 | 3.01 ± 0.099 | 3.22 ± 0.1 | 3.17 ± 0.092
11 | VNKYGLRADKLYEKLKQ [ISW2] | 1.52 ± 0.13 | 1.5 ± 0.11 | 1.6 ± 0.13 | 1.47 ± 0.15
12 | ALTKFEASQVTEKQRKK [RPL35A] | 3.2 ± 0.27 | 2.57 ± 0.1 | 3.1 ± 0.064 | 3.17 ± 0.061
13 | ADEEEEIVDTYQEDIFV [ISW2] | 2.8 ± 0.11 | 2.67 ± 0.12 | 3.43 ± 0.12 | 2.48 ± 0.088
14 | DHLKLVSLFSNLRHERN [YIL149C/MLP2] | 2.41 ± 0.092 | 2.67 ± 0.19 | 2.5 ± 0.26 | 2.44 ± 0.097
15 | LLRYGGAFTIALAYAGT [RPN2] | 2.02 ± 0.084 | 2.27 ± 0.11 | 1.91 ± 0.12 | 2.24 ± 0.051
16 | KALVLFVPVPALSAYHK [RPS7B] | 2.13 ± 0.063 | 2.51 ± 0.072 | 2.12 ± 0.12 | 2.4 ± 0.041
17 | EEYDDDDDNSNVDYYNV [SNF2] | 2.89 ± 0.067 | 2.93 ± 0.063 | 2.93 ± 0.042 | 3.06 ± 0.067
18 | VLESHWKQDLTKEEAIK [PUP1] | 2.71 ± 0.18 | 3.15 ± 0.13 | 3.32 ± 0.12 | 3.08 ± 0.15
19 | DGIFSSKTDNIEDPNLS [YMR153W/NUP53] | 2.59 ± 0.086 | 2.2 ± 0.092 | 2.69 ± 0.096 | 2.55 ± 0.095
20 | RSLASFEQTAFSRHAQQ [SIR4] | 2.84 ± 0.059 | 2.73 ± 0.045 | 2.82 ± 0.05 | 2.77 ± 0.05
21 | RATNCRKRKCGHTNQLR [RPL40A] | 3.25 ± 0.092 | 3.13 ± 0.058 | 3.12 ± 0.048 | 3.17 ± 0.051
22 | SGKLRDYQVQGLNWLIS [ISW2] | 2.58 ± 0.07 | 2.71 ± 0.053 | 2.33 ± 0.065 | 2.85 ± 0.039
23 | ILTEHLGYPPISLVDDI [MTW1] | 2.36 ± 0.054 | 2.17 ± 0.047 | 2.22 ± 0.071 | 2.11 ± 0.042
24 | LFGSSNNNNNNNNSNNI [YGL172W/NUP49] | 2.93 ± 0.077 | 2.33 ± 0.056 | 2.53 ± 0.086 | 2.6 ± 0.097
25 | LSEDELRELDVELIESK [SMC4] | 3.33 ± 0.18 | 3.72 ± 0.24 | 3.4 ± 0.11 | 3.23 ± 0.073
26 | ARTATVSKKWAAAAVCE [RPL14A] | 2.9 ± 0.089 | 3.21 ± 0.084 | 3.58 ± 0.11 | 2.71 ± 0.066
